Measurements: publication PMC9092470, “Understanding p300-transcription factor interactions using sequence variation and hybridization†” (RSC Chemical Biology, 2022)
Values joined by “and” are separate entries in the source; they are usually repeats but may differ in a detail not shown here. Identical values can stand only once.

Experiments:
[1] = target: p300 CH1 (Homo sapiens) (UniProt Q09472); experiment: anisotropy; settings: cited from earlier work
[2] = target: T1, CITED2216-259 /p300 complex (Homo sapiens, UniProt Q09472); experiment: Competition ITC: HIF-1α776-826 titrated to preformed CITED2216-259/p300 complex; type: binding; settings: titrated to CITED2216-259/p300 complex
T1 construct: GST (N, cleaved yes); made in house; host or cells: p300: E. coli BL21 pLysS (pGEX-4T1-p300); CITED2 peptide: chemical synthesis
Procedure: Figure S7Apparent KD fits for the competition ITC experiment using a competition interaction model. p300/ligand complexes were prepared by titrating the appropriate ligand first to p300 in the cell using 3-5 µM protein concentration, the titration stopped when it reached close to […]
(Table S5) Then it was titrated with the competitor ligand using 30-60 µM concentration in the syringe, 5 or 10 uL injections with 180-240 s spacing. Background titrations were performed without p300 in the cell and subtracted from the measurements. Apparent KD,app and ΔH app values data were fitted to a competition model (Fig. S17) in SEDPHAT. Error bars represent the estimated integration errors.
(1 picture or pasted object on this page, not shown here)
Table S1 Apparent KD values and thermodynamic parameters for competition ITC experiments derived from fitting the data to a competition model depicted in Fig. S17. confidence intervals of the binding parameters are shown in brackets. […]
(§1) Isothermal titration calorimetry
Prior to ITC measurement p300 CH1 was dialysed or run on S75 column in the buffer used for titration, and the same buffer was used to dissolve the pure peptides. […]
37°C, using 2 µl injections and 120 or 180 s spacing between injections. Experiments with the […]
(§2) instrument using 3-5 µM protein in the cell and 40-60 µM ligand in the syringe at 35°C, using 5 µl injections and 180 s spacing between injections, for 40 injections. Titrations were performed in 40 mM Na-phosphate, pH 7.5 100 mM NaCl, 1 mM DTT buffer except for GFP-HIF-1α and variants for which 25 mM Tris-HCl, 150 mM NaCl, 1mM DTT, pH 7.4 buffer was used. Data were analysed using NITPIC3 and fitted using SEDPHAT4 to a single binding site model (fixed 1:1 stoichiometry), with baseline and incompetent protein fraction as adjustable parameters. 68 % confidence intervals for the fitted values were determined using the automatic confidence interval search implemented in SEDPHAT. Figures were prepared using […]
Competition ITC measurements
Competition ITC measurements were performed in Microcal VP ITC. […]

[3] = target: T2, p300 (CH1 domain, residues 330–420) (Homo sapiens, UniProt Q09472); experiment: ITC of expressed HIF-1α, CITED2 and CITIF peptides binding to p300; settings: ITC, expressed peptides, conditions as Fig. S6 (40 mM sodium phosphate, pH 7.5, 100 mM NaCl, 1 mM DTT, 35°C)
T2 construct: GST (N, cleaved yes); made in house; host or cells: E. coli BL21 pLysS (pGEX-4T1-p300)
Procedure: We hypothesized that it would be possible to enhance the affinity of HIF-1α for p300 by hybridising key regions of both CITED2 and HIF-1α (see later). We first measured the affinity of the parent peptides. A particular difficulty in comparing these peptide sequences is the different length used in different studies.[28,33,35,36] […]
data and fitted thermogram (lower) (40 mM sodium phosphate, pH 7.5 100 mM NaCl, 1 mM DTT buffer using 5 µM protein in the cell and 60 µM ligand in the syringe at 35°C); (b) Thermodynamic signatures for each interaction. […]
as §1
(§3) Prior to ITC measurement p300 CH1 was dialysed or run on S75 column in the buffer used for titration, and the same buffer was used to dissolve the pure peptides. Experiments with […]
(§4) MicroCal iTC200 instrument with 10 µM protein in the cell and 100 µM ligand in the syringe at 37°C, using 2 µl injections and 120 or 180 s spacing between injections. Experiments with the […]
as §2

[4] = target: T2, p300 (CH1 domain, residues 330–420); experiment: ITC of chemically synthesized HIF-1α, CITED2 and CITIF peptides binding to p300; settings: ITC, 35 °C, 40 mM sodium phosphate, pH 7.5, 100 mM NaCl, 1 mM DTT, 5 μM protein in cell, 60 μM ligand in syringe
Procedure: Raw ITC (upper) data and fitted thermogram (lower) (40 mM sodium phosphate, pH 7.5 100 mM NaCl, 1 mM DTT buffer using 5 μM protein in the cell and 60 μM ligand in the syringe at 35 °C) error bars represent the estimated integration errors; (b) Thermodynamic signatures for each interaction.
Figure S8 (a) Sequences of the truncated CITED2 peptides and isothermal titration […]
µM peptide in the syringe. All measurements were carried out 40 mM sodium phosphate, pH 7.5 100 mM NaCl, 1 mM DTT buffer at 35°C. Error bars represent the estimated integration […]
Table S2 Thermodynamic parameters for shortened CITED2 sequences. 68% confidence intervals for the fitting are shown in brackets. Data fitted to a single binding site model, fixed 1:1 stoichiometry with incompetent protein fraction as an adjustable parameter. […]
as §1, §3, §4, §2

[5] = target: T3, p300 (Homo sapiens, UniProt Q09472); experiment: Global fitting of ITC titrations with ternary complex model: binary binding parameters
T3 construct: GST (N, cleaved yes); made in house; host or cells: E. coli BL21 pLysS (pGEX-4T1-p300)
Excerpt: To gain more insight into the mechanism by which the different CITED2 sequences displace HIF-1α from the preformed HIF-1α/p300 complex, we performed global fitting[69] of the competition data using a model that permits ternary complex formation depicted in Fig. 5e (fitted thermograms are shown on Fig. S9 (ESI ^†), for detailed analysis see Fig. S18 and ESI ^† eqn (S5)–(S20)). The reported cooperativity constant (α), the derived ΔΔG and ΔΔH represent the additional Gibbs energy and additional contribution to the enthalpy due to cooperative interactions and indicate whether the ternary complex formation is favourable (negative ΔΔG) or unfavourable (positive ΔΔG).[70,71]
Thus the enthalpy change for equilibrium III. (CITED2 binding to HIF-1 α /p300 complex can
∆𝐻𝑇,𝐶𝐼𝑇 = ∆𝐻𝐶𝐼𝑇 + ∆∆𝐻 𝐸𝑞. 19.
And the enthalpy for equilibrium IV. HIF-1 α binding to CITED2/p300 complex can be given by:
∆𝐻𝑇,𝐻𝐼𝐹 = ∆𝐻𝐻𝐼𝐹 + ∆∆𝐻 𝐸𝑞. 20.
Fitting in SEDPHAT was parametrized as follows: HIF-1α776-826 titrated to p300 (B to
ΔH B, logK[AB]C/KAC and ΔΔH (corresponding to KHIF, ΔH HIF, KCITED, ΔH CITED, cooperativity
constant α and ΔΔH) were fitted using A+B+C <-> AB + C <-> AC + B <-> ABC triple complex
model. Incompetent fraction for p300 and baseline was fitted locally for each experiment. 68

[6] = target: T4, p300 CH1 domain (residues 330-420), GST removed with thrombin (human, UniProt Q09472 330-420); experiment: ITC; global fit in SEDPHAT of three titrations (HIF-1α776-826 to p300, CITED2 peptide to p300, CITED2 peptide to preformed p300/HIF-1α776-826) to a model with a ternary CITED2-HIF-1α-p300 complex; 40 mM sodium phosphate, pH 7.5, 100 mM NaCl, 1 mM DTT; 35 °C; settings: both partners purified
T4 construct: human p300, CH1 domain (zinc finger, TAZ type 1), residues 330-420; Thrombin-cleaved construct (expected m/z 10603.30), used on the Microcal VP ITC with synthetic partners (D1:p17); source: E. coli BL21 pLysS (pGEX-4T-1), glutathione beads, on-column thrombin cleavage, SEC

[7] = target: T5, p300 CH1 domain (residues 330–420) (UniProt Q09472 330-420); experiment: ITC; expressed peptides (GFP tag cleaved) titrated to p300; conditions in Fig. S6 (ESI); fixed 1:1 stoichiometry; settings: both partners purified
T5 construct: p300 CH1 domain, residues 330–420; The cleavage of GST is said for the anisotropy control; also called p300 with the GST tag cleaved; source: recombinantly expressed as a fusion protein with GST, GST tag cleaved

[8] = target: T5, p300 CH1 domain (residues 330–420); experiment: ITC; competition: CITED2 peptides titrated into the preformed p300/HIF-1α 776–826 complex (1.2–1.6 equivalents of HIF-1α); 40 mM sodium phosphate, pH 7.5, 100 mM NaCl, 1 mM DTT, 35 °C; competitive binding model; apparent; settings: both partners purified
[9] = target: T5, p300 CH1 domain (residues 330–420); experiment: ITC; peptide in the syringe, p300 in the cell (Fig. 4: 5 μM protein, 60 μM ligand); 40 mM sodium phosphate, pH 7.5, 100 mM NaCl, 1 mM DTT, 35 °C; single-site model, fixed 1:1 stoichiometry; settings: both partners purified
[10] = target: T5, p300 CH1 domain (residues 330–420); experiment: as above; settings: both partners purified; remark: listed apart in the source
[11] = 68% confidence interval in brackets
[12] = global fit 1 (CITED224-259 and HIF776-826 titrations)
[13] = global fit 2 (CITED216-269 and HIF776-826 titrations)
[14] = global fit 3 (CITED2216-248 and HIF776-826 titrations)

T5 sequence (Q09472 330-420): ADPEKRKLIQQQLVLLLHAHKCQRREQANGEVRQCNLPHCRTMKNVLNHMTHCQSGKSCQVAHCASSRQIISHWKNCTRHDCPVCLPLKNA
T1 sequence (Q09472 330-420, one chain of several): as the sequence (Q09472 330-420) above
T4 sequence (Q09472 330-420): as above
T3 sequence (Q09472 330-420): as above
T2 sequence (Q09472 330-420): as above

In the case of CITED2 216-269 (from UniProt Q99967), the Kd [1] is listed as 10 nM.

In the case of `CC[C@H](C)[C@H](NC(=O)[C@@H]1CCCN1C(=O)[C@H](C)NC(=O)[C@H](CC(N)=O)NC(=O)[C@@H](NC(=O)[C@H](CCC(=O)O)NC(=O)[C@H](CS)NC(=O)[C@H](CC(=O)O)NC(=O)[C@H](Cc1ccc(O)cc1)NC(=O)[C@H](CO)NC(=O)[C@@H](NC(=O)[C@H](CC(C)C)NC(=O)[C@H](CCC(N)=O)NC(=O)[C@@H]1CCCN1C(=O)[C@H](CC(C)C)NC(=O)CNC(=O)[C@H](CO)NC(=O)[C@H](CCC(=O)O)NC(=O)[C@H](CC(=O)O)NC(=O)[C@H](CCSC)NC(=O)[C@H](CO)NC(=O)[C@H](CCC(N)=O)NC(=O)CNC(=O)[C@H](CC(C)C)NC(=O)[C@H](CC(C)C)NC(=O)[C@H](CCCNC(=N)N)NC(=O)[C@H](CS)NC(=O)[C@H](C)NC(=O)[C@H](CC(C)C)NC(=O)[C@H](CC(=O)O)NC(=O)[C@H](CO)NC(=O)[C@H](CO)NC(=O)CNC(=O)[C@@H]1CCCN1C(=O)CN)[C@@H](C)O)C(C)C)C(=O)N[C@@H](CCC(N)=O)C(=O)NCC(=O)N[C@@H](CO)C(=O)N[C@@H](CCCNC(=N)N)C(=O)N[C@@H](CC(N)=O)C(=O)N[C@@H](CC(C)C)C(=O)N[C@@H](CC(C)C)C(=O)N[C@@H](CCC(N)=O)C(=O)NCC(=O)N[C@@H](CCC(=O)O)C(=O)N[C@@H](CCC(=O)O)C(=O)N[C@@H](CC(C)C)C(=O)N[C@@H](CC(C)C)C(=O)N[C@@H](CCCNC(=N)N)C(=O)N[C@@H](C)C(=O)N[C@@H](CC(C)C)C(=O)N[C@@H](CC(=O)O)C(=O)N[C@@H](CCC(N)=O)C(=O)N[C@H](C(=O)N[C@@H](CC(N)=O)C(=O)O)C(C)C` [HIF-1α776–826], the Kd ([2]; fixed KD = 26.3 nM for CITED2, treat with caution, small heat change, read-out: KD,app HIF-1α) is reported as 695 nM, the “ΔHapp, HIF-1α” value ([2]; treat with caution) is reported as -26.37 kcal/mol and the “ΔSapp, HIF-1α” value ([2]; treat with caution) is reported as -57.4 cal/mol/K. For the same molecule, the “ΔS, expressed peptides” value [3] was −39.2 cal mol^−1 K^−1, the “ΔH, expressed peptides” value [3, 11] was -22.2 kcal/mol and the “ΔS, synthetic peptides” value [4] was −41 cal mol^−1 K^−1. The “ΔH, synthetic peptides” value [4, 11] was -22.9 kcal/mol, the ΔH [5, 12] was -22.7 kcal/mol and the ΔS [5, 12] was -40.3 cal mol-1 K-1. It also gave a ΔH [5, 13] of -22.9 kcal/mol, a ΔS [5, 13] of -41.1 cal mol-1 K-1 and a ΔH [5, 14] of -27.8 kcal/mol. It also gave a ΔS [5, 14] of -57.4 cal mol-1 K-1.

In the case of HIF-1α 776-826 (from UniProt Q16665), the Kd [1] is listed as 10 nM.

B1: HIF-1α776-826 (synthetic) (peptide)
peptide: Ac-SDLACRLLGQSMDESGLPQLTSYDCEVNAPIQGSRNLLQGEELLRALDQVN-NH2
modifications: cysteine pairing not given here
notes: source: synthetic peptide
In the case of B1, the Kd [6] is reported as 67 nM and 48.8 nM and 52.3 nM.

B2: CITIF, HIF-1α-CITED2 hybrid sequence, expressed peptide (GFP tag cleaved) (peptide)
chain: GPGSDEEVLMSLVIEMGLDRIKELPQLTSYDCEVNAPIQGSRNLLQGEELLRALDQVN
Molecule B2 has a dH [7] of -18.3 kcal/mol.

B3: CITED2 216–269, chemically synthesized peptide (peptide, UniProt Q99967 216-269, looked up)
peptide: Ac-NVIDTDFIDEEVLMSLVIEMGLDRIKELPELWLGQNEFDFMTDFVCKQQPSRVS-NH2
notes: source: synthetic peptide (chemical synthesis, see ESI)
In the case of B3, the “KD,app (competition against the preformed p300/HIF-1α 776–826 complex)” value [8] is reported as 1.1 nM, the Kd [9] is reported as 26.3 nM and the dH [9] is reported as -13.2 kcal/mol.

With DEEVLMSLVIEMGLDRIKELPELWL (peptide, UniProt Q99967 224-248, looked up) [CITED2 224–248 (truncated CITED2)] the Kd [10] was 10.4 µM.

For Ac-DEEVLMSLVIEMGLDRIKELPELWLGQNEFDFMTDF-NH2 (source: synthetic peptide) [CITED2224-259 (synthetic)], the Kd [6] was 11.6 nM.

B4: HIF-1α 786–826, expressed peptide (GFP tag cleaved) (peptide)
peptide: GPGSSMDESGLPQLTSYDCEVNAPIQGSRNLLQGEELLRALDQVN
notes: four residues (Gly-Pro-Gly-Ser) remaining from the PreScission protease cleavage; Free N-terminus; source: expressed as GFP fusion protein, tag cleaved with PreScission protease
With B4 the dH [7] was -32.7 kcal/mol.

B5: HIF-1α 776–826, expressed peptide (GFP tag cleaved) (peptide)
peptide: GPGSSDLACRLLGQSMDESGLPQLTSYDCEVNAPIQGSRNLLQGEELLRALDQVN
notes: as for B4
In the case of B5, the Kd [7] is reported as 82.4 nM and the dH [7] is reported as -22.2 kcal/mol.

B6: CITED2216-269 (synthetic) (peptide)
peptide: Ac-NVIDTDFIDEEVLMSLVIEMGLDRIKELPELWLGQNEFDFMTDFVCKQQPSRVS-NH2
notes: source: synthetic peptide
B6 gave a Kd [6] of 26.9 nM.

B7: CITED2 224–259, chemically synthesized peptide (peptide, UniProt Q99967 224-259, looked up)
peptide: Ac-DEEVLMSLVIEMGLDRIKELPELWLGQNEFDFMTDF-NH2
notes: as for B3
For B7, the “KD,app (competition against the preformed p300/HIF-1α 776–826 complex)” value [8] was 12.2 nM, the Kd [9] was 9.1 nM and the dH [9] was -12.4 kcal/mol.
